Assay results reported in patent publication US20260085106A1 (AUTOLUS, published 2026).

These binders were tested against T1, caffeine dAb (assay: peptide phage display panning on the anti-caffeine sdAb, method of Example 6).
T1 construct: Llama-derived
T1 sequence (VHH, as listed by the source): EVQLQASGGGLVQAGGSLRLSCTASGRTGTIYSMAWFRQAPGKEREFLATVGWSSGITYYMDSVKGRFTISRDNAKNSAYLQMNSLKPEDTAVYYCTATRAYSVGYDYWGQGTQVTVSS

Row | binding result | Binder
1 | binds | ACTYLNSAKC [SEQ ID NO 16]
2 | binds | DLSIGNH (also called DLSIGNH) [SEQ ID NO 13]

The remaining lines, values behind:

Row | Binder | binding result
3 | HDSPTAA (also called HDSPTAA) [SEQ ID NO 14] | binds
4 | YPDVPLA (also called YPDVPLA) [SEQ ID NO 15] | binds
5 | HTLNKPP (also called HTLNKPP) [SEQ ID NO 12] | binds
